Assay results: PMC5574827, “Improvement of the pharmacological activity of menthol via enzymatic β-anomer-selective glycosylation” (AMB Express, 2017)

Substrate: CC(C)[C@@H]1CC[C@@H](C)C[C@H]1O
Assay: LC-MS/MS (MRM) of menthol glucoside, Lineweaver-Burk
Format: biochemical, Bacillus licheniformis
Conditions: UDP-glucose as sugar donor (2 mM in the general protocol), 1 mM MgCl2, 50 mM Tris-HCl pH 8.0, 30 °C, 10 min

B1: BLC (Bacillus licheniformis DSM 13 = ATCC 14580) (protein)
chain: MGHKHIAIFNIPAHGHINPTLALTASLVKRGYRVTYPVTDEFVKAVEETGAEPLNYRSTLNIDPQQIRELMKNKKDMSQAPLMFIKEMEEVLPQLEALYENDKPDLILFDFMAMAGKLLAEKFGIEAVRLCSTYAQNEHFTFRSISEEFKIELTPEQEDALKNSNLPSFNFEDMFEPAKLNIVFMPRAFQPYGETFDERFSFVGPSLAKRKFQEKETPIISDSGRPVMLISLGTAFNAWPEFYHMCIEAFRDTKWQVIMAVGTTIDPESFDDIPENFSIHQRVPQLEILKKAELFITHGGMNSTMEGLNAGVPLVAVPQMPEQEITARRVEELGLGKHLQPEDTTAASLREAVSQTDGDPHVLKRIQDMQKHIKQAGGAEKAADEIEAFLAPAGVK
notes: His-tagged, pET28a (BamHI/XhoI), expressed in E. coli BL21(DE3), Ni-NTA purified; cloned as in Wu et al. 2012
With B1 the Km was 1740 ± 600 µM and the kcat was 1.58 ± 0.0388 s⁻¹.
